Common to all, as to assay: UV-ligand exchange, anti-b2m ELISA; exchange yield grade (+ >10%, ++ >20%, +++ >50, ++++ >75%)
In general terms: ELISA stands for enzyme-linked immunosorbent assay.

The target of one experiment is HLA-B*44:02 (human).
The target in another experiment is HLA-A*01:01 (human). Conditions: remark: other sources report otherwise.
Another experiment concerns the target HLA-A*03:01 (human).

Like-named read-outs stand apart in the source and are kept apart here.

As to QQATPGPAY, the peptide exchange yield with HLA-B*44:02 (human) (remark: other sources report otherwise) fell in the range of 20 to 50%. Take ITEKNSGLY: the peptide exchange yield with HLA-A*01:01 (human) lay within 50 to 75%. In the experiment with HLA-B*44:02 (human), AEGGKVPIKW (modifications not checked) gave a peptide exchange yield of 50 to 75%. For KITDFGLAK (modifications not checked), the peptide exchange yield with HLA-A*03:01 (human) lay in the range of 20 to 50%.

The record behind these values is patent US20180291082A1.
